Molecular target: complement component 3b (C3b) (human, UniProt P01024 23-667; P01024 749-1663)
Assay: SPR

Chain of complement component 3b (C3b) (P01024 23-667, chain 1 of 2): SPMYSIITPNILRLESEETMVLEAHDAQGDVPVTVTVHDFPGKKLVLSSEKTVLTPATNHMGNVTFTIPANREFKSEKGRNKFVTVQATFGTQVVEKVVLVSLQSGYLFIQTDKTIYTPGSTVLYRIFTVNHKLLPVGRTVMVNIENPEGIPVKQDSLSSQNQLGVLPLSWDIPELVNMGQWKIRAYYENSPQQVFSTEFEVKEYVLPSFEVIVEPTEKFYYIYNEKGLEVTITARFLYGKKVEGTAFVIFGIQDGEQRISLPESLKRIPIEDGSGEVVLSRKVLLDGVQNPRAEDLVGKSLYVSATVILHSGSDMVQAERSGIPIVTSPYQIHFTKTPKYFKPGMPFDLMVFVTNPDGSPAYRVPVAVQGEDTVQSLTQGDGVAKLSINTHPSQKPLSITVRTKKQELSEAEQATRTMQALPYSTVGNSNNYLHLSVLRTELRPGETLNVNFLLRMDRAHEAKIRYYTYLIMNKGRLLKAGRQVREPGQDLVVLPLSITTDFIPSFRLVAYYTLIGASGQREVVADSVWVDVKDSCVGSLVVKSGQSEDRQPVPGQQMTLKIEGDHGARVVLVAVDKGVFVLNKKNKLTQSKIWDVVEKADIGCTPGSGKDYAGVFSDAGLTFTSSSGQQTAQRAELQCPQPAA
Chain of complement component 3b (C3b) (P01024 749-1663, chain 2 of 2): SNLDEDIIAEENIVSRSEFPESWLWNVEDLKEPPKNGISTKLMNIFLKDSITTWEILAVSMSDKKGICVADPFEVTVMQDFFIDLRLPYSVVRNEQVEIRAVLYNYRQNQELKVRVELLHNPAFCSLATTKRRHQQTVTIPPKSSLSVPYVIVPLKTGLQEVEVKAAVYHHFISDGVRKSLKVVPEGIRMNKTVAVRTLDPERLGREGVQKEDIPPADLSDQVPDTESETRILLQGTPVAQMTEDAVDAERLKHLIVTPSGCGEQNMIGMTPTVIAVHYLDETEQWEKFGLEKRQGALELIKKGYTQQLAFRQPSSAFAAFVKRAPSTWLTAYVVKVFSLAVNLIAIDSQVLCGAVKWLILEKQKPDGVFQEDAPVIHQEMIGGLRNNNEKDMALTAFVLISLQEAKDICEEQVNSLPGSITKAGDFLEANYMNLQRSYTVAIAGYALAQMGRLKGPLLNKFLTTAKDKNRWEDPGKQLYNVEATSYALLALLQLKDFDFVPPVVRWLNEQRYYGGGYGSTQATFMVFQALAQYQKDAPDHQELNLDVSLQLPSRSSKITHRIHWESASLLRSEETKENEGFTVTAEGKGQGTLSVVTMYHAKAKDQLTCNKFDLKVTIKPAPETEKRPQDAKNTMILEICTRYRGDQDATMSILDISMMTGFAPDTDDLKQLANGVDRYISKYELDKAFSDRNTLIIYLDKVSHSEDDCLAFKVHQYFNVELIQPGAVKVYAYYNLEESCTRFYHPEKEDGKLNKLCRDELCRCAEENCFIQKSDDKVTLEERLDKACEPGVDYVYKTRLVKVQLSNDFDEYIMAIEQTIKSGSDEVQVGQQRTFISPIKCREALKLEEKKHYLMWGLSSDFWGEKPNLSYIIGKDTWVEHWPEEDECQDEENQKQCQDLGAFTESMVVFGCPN

B1: FH(1–4), recombinant N-terminal four CCP domains (CCP1-4, residues 1–246) of human factor H (domain or fragment, UniProt P08603 19-264, looked up)
chain: EDCNELPPRRNTEILTGSWSDQTYPEGTQAIYKCRPGYRSLGNVIMVCRKGEWVALNPLRKCQKRPCGHPGDTPFGTFTLTGGNVFEYGVKAVYTCNEGYQLLGEINYRECDTDGWTNDIPICEVVKCLPVTAPENGKIVSSAMEPDREYHFGQAVRFVCNSGYKIEGDEEMHCSDDGFWSKEKPKCVEISCKSPDVINGSPISQKIIYKENERFQYKCNMGYEYSERGDAVCTESGWRPLPSCEE
  Kd: 11 ± 2 µM
  stoichiometry N: 1
